Measurements taken from patent US20140031293A1.

Target: purified human fibrinogen (human) (UniProt P02671)
Experiment: cell-based or functional assay

UniProt P02671, sequence (P02671 20-629 limits assumed, chain 1 of 3): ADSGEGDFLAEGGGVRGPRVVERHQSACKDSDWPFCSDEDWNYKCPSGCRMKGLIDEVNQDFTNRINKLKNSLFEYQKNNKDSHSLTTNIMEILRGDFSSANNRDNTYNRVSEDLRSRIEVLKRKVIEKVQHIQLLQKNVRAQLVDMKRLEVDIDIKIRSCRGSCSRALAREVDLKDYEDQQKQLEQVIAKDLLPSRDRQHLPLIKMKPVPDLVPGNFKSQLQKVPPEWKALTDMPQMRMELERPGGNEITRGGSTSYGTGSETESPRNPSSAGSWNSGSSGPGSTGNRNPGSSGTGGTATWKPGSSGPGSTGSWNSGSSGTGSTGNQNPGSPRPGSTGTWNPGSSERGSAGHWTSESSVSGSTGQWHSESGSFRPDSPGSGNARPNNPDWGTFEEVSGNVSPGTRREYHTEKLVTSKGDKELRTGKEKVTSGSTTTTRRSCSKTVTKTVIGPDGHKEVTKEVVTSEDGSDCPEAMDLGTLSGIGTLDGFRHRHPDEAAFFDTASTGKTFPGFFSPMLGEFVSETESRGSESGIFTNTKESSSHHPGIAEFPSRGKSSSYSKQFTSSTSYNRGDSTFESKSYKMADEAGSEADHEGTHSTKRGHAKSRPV
UniProt P02671, sequence (P02675 31-491 limits assumed, chain 2 of 3, further chain): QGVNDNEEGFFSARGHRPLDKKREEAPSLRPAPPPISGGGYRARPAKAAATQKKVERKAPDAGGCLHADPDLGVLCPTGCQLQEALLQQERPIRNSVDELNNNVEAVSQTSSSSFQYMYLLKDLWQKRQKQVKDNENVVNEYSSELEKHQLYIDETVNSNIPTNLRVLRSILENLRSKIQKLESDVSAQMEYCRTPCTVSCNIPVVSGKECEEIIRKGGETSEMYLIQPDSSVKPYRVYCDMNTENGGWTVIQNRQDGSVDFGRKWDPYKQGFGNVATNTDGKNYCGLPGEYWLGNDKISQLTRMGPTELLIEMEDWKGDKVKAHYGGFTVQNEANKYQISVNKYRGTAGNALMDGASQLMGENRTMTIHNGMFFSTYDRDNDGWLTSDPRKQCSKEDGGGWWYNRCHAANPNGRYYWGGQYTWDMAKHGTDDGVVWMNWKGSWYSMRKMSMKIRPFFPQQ
UniProt P02671, sequence (P02679 other isoform, or with tags, fused parts or gaps limits assumed, chain 3 of 3, further chain): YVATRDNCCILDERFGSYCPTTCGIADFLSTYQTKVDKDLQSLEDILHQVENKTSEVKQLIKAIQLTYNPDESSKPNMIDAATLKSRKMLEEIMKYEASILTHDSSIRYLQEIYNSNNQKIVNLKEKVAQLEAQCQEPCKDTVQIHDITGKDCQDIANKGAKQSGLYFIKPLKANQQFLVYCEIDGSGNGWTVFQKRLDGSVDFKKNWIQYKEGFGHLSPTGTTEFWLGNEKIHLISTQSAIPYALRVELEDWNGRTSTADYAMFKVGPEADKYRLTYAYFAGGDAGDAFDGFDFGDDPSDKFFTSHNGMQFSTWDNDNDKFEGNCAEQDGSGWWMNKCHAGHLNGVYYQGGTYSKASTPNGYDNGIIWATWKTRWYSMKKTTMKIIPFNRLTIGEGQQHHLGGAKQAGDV

Clotting activity (clot formation, Sigma Amelung KC4 coagulometer; 30 uL sample at 0.5 mg/ml added to 100 uL fibrinogen at 3 mg/ml): < 6 s
Substance: PeproStat: fibrinogen-binding peptides of sequence GPRPG (GPRPG-PEG12-maleimide) conjugated to human serum albumin thiolated with 2-iminothiolane (from UniProt P02768 25-609)
